Data reported in the nanobody polyreactivity screen of Harvey et al. (2022).

Assay: yeast display, Sf9 membrane polyspecificity reagent, FACS + sequencing; frameworks hold sequencing errors
How it was run: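 Galactose-induced (36–48 hours) yeast carrying a synthetic nanobody display library were exposed to 10% biotinylated, detergent-solubilized Sf9 membrane reagent at 4 °C for 1 hour. FACS followed streptavidin microbead enrichment, using low and high (top ~1%) gates for expression (anti-HA) and reagent binding (streptavidin). Colony PCR, MiSeq 2 × 250 sequencing and CDR-length filtering followed. Labels for polyreactivity reflect the gate of origin.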

For “QVQLVESGGGLVQAGGSLRLSCAASGFTISRNAMGWYRQAPGKERELVAAISQSGGSTYYADSVKGRFTISRDNAKNTVYLQMNSLKPEDTAVYYCAAQSFAQYGWRYGYWGQGTQVTVSS”, the “polyreactivity (PSR sort gate)” value was “high polyreactivity”.

With “QVQLVESGGGLVQAGGSLRLSCAASGFTFGVYAMGWYRQAPGKERELVATISSSGSTNYADSVKGRFTISRDNAQNPVYLQMNSLKPEDTAVYYCAVYYLYRRRQYYYWGQGTQVTVSS” the “polyreactivity (PSR sort gate)” value was “low polyreactivity”.

In the case of “QVQLVESGGGLVQAGGSLRLSCAASGRTFYTNAMGWYRQAPGKERELVASISGSGGSTYYADSVKGRFTISRDNGKNTVYLQMNSLNPEDTAVYYCAADPAPTVEFGKYDYWGQGTQVTVSS”, the “polyreactivity (PSR sort gate)” value was “low polyreactivity”.

With “QVQLVESGGGLVQAGGSLRLSCAASGSISYSYAMGWYRQAPGKERELVAAISWRGVSTYYADSVKGRFTISRDNAKNTVYLQMNSLKPEDTAVYYCNAVHHYPEHIGGGYWGQGTQVTVSS” the “polyreactivity (PSR sort gate)” value was “low polyreactivity”.

In the case of “QVQLVESGGGLVQAGGSVRLSCGASGRSFQRYALGWYRQAPGTERELVAAIRWSGGATYGDSVKGRFTISRDNAKNTVYLQMNSLQPEDTAVYYCAAVDRRDPYYPKYNYWGQGTQVTVSS”, the “polyreactivity (PSR sort gate)” value was “high polyreactivity”.

With “QVQLVESGGGIVQAGGSLRLSCAASGSTIDHYTMGWYSQAPGKERELVAAINRIGDSTYYADSVKGRFTISRDNAKNTVYLQMYSVNPEDTAVYYCAARHVPRFKNYGYWGQGTQVTVSS” the “polyreactivity (PSR sort gate)” value was “high polyreactivity”.

With “QVQLVESGGGLVQAGGSLRLSCAASGSIFEYNAMGWYRQAPGKERELVAAISWSSGTTYYADSVKGRFTISRDNAKNTVYLQMNSLKPEDTAVNYCIAGRYGKDSDYWGQGTQVTVSS” the “polyreactivity (PSR sort gate)” value was “low polyreactivity”.

For “QVQLVESGGGLVQAGGSLRLSCAASGNTFPVYAMGWYRQASGKERELVATITSGGSTNYADSVKGRFTISRDNAKNTVYLQMNSLKQEDTAVYYCARRAVYSKRRYDYWGQGTQVTVSS”, the “polyreactivity (PSR sort gate)” value was “low polyreactivity”.

For “QVQLVESGGGLVQAGGSLRLSCAASGLIFDSDAMGWYRQAPGKERELVAAITYTGGSTYYADSVKGRFTISRDSAKNTVYLQMNSLKPEDTAVYYCAARRQRDRYGYWGQGTKVTVSS”, the “polyreactivity (PSR sort gate)” value was “high polyreactivity”.

With “QVQLVESGGGLVQAGGSLRLSCAASGRIFGYNAMGWYIQAPGKERELVAVITYSGGSTYYADSVKGRFTISRDNAKNTVYLQMNSLKPEDTAVYYCNARPIDRYSGSGKQWPDYNYWGQGTQVTVSS” the “polyreactivity (PSR sort gate)” value was “low polyreactivity”.

For “QVQLVESGGGLVQAGGSLRLSCAASGITFTGYAMGWYRQAPGKERELVAVISETGGSTYADSVKGRFTISRDNAKNTVYLQMNSLKPEDTAVYYCAARLWWPYSTAWAKMDYWGQGTQVTVSS”, the “polyreactivity (PSR sort gate)” value was “low polyreactivity”.

For “QVQLVESGGGLVQAGASLRLSCAASGRTFETNAMGWYSQAPGKEREFVASINWSGGSTYYSDSVKGRFTISRDNAKNTVYLQMNSLKPEDTAVYYCAADHSYWDWWSYYYWGQGTQVTVSS”, the “polyreactivity (PSR sort gate)” value was “low polyreactivity”.

In the case of “QDQLVESGGGLVQAGGSLRLSCAASGFTFYAYAMGWYRQAPGKERELVAAITGRGGSTYYADSVKGRFTISRDNAKNTVYLPLNSLKPEDTAVYDCNKVKKSDKFNTVSNDYWGQGTQVTVSS”, the “polyreactivity (PSR sort gate)” value was “high polyreactivity”.

In the case of “QVQLVESGGGLVQAGGSLRLSCAASGITFYYYAMGWYRQAPGKERELVASISSVGSTYYADSVKGRFTISRDNAKNTVYLQMNSLKPEDTAVYYCAAVDYVRYYPDEFDYWGQGTQVTVSS”, the “polyreactivity (PSR sort gate)” value was “low polyreactivity”.

With “QVQLVESGGGLVQAGGSLRLSCAASGSIFSVYAMGWYRQAPGKERELVASITSGGRTKYADSVKGRFTISRDNAKNTVYLQMNSLKQEDTAVYYCAKDGGGLLRWYTDEYDYWGQGTQVTVSS” the “polyreactivity (PSR sort gate)” value was “low polyreactivity”.

In the case of “QVQLEESGGGLVQAGGSLRLSCAASGSTFGWYAMGWYRQAPGKERELVASITSGGRTNYADSVKGRFTISRDNAKNTVYLQMNCLKPEDTAVYYCAKRVYGSNSLYDYWGQGTQVTVTS”, the “polyreactivity (PSR sort gate)” value was “low polyreactivity”.

For “QVQLVESGGGLVQAGGSLRLSCADSASTLVVNGMGWYRQAPGKERELVASISSDGSTNYADSVKGRFTISRDNAKNTVYLQMNSLKPEDTAFYYCAADEGNGQASLSSNLYDYWGQGTQVTVSS”, the “polyreactivity (PSR sort gate)” value was “low polyreactivity”.

In the case of “QVQLVESGGGLVQAGGSLRLSCAASGSIFSSYSMGWYRQAPGKERELVAAIDGSGGSTYADSVKGRFTISRDNAKNTVYLQMNSLKPEDTAVYYCAVDSFLVYSAVRPYDYWGHGTQVTVSS”, the “polyreactivity (PSR sort gate)” value was “low polyreactivity”.

With “QVQLVESGGGLVQAGGSLRLSCAASGRTFWPNVMGWYRQAPGKERELVAAITWGDASTYYADSVKGRFTISRDNAKNTVYLQMNSLKPEDTAGYSCAASDYRSTYDYWGQGTQVTVSS” the “polyreactivity (PSR sort gate)” value was “low polyreactivity”.

For “QVQLVESGGGLVQAGGSLRLRCAASGRIYCDNATGRYRQAPGKESELVAPISDSVVITYYADSVKGRFTISRDNAKNTLYVQMNSLKPEDTAVYYCAADKRGTVYLSSFWMDYWGQGTQVTVSS”, the “polyreactivity (PSR sort gate)” value was “low polyreactivity”.

In the case of “QVQLVESVGGLVQAGGSLRLSCAASGSTLSAYVMGWYRQAPGKERELVAAITRGGNTYYADSVKGRFTISRDNAKNTVYLQMNSLKPEDTAVYYCAARTYVSYCYYTLNYWGQGTQVTVSS”, the “polyreactivity (PSR sort gate)” value was “high polyreactivity”.

With “QVQLVESGGGLVPAGGSLRLSCAASGSTGFNAMGWYRQAPGKERELVAAINYSDGSTYYADSVKGRFTISRDNAKNTVYLQMNSLKPEDTAVYYCNAGSSKDDSYYSYGYWGQGTQVTVSS” the “polyreactivity (PSR sort gate)” value was “low polyreactivity”.

For “QVQLVESGGGLVQAGGSLRLSCAASGRIFGGNAMGGYRQAPGKERELVAAITTGGSTNYADSVKGRFTISRDNAKNTVYLQMNSLKPEDTAVYYCNKRQSARLYGDTYDYWGQGTQVTVSS”, the “polyreactivity (PSR sort gate)” value was “low polyreactivity”.

In the case of “QVQLVESGGGLVQAGGSLRLSCAASGFTFNYYAMGWYRQAPGKEREFVAAISYGGGDTYYADSVKGRFTISRDNAKNTVYLQMNSLKPEDTAVYYCNARFRKRAYRYDYWGQGTLVTVSS”, the “polyreactivity (PSR sort gate)” value was “high polyreactivity”.

With “QVQLVESGGGLVQAGGSLRLSCAASGGTFARYAMGWYRQAPGKERELVAAITRSGGTTYYADSVKGRFTISRDNAKNTVYLQMNSLKPEDTAVYYCAALPIVDYYGYGYWGQGTQVTVSS” the “polyreactivity (PSR sort gate)” value was “high polyreactivity”.

For “QVQLVESGGGLVQAGGSLRLSCASSGRIFKYYSMGCYRQSPGKVRELVASISWSGGSTYYADSVKGRFTISRDNAKNTVYLQMNSLKPEDTAVYYCAAYVTYLRYRSNIAYYGYDYWGQGTQVTVSS”, the “polyreactivity (PSR sort gate)” value was “high polyreactivity”.

With “QVQLVESGGGLVQAGGSLRLSCAASGRIFIAYAMGWYRQAPWKEREFVAAISSRGGSTYYADSVKGRFTISRDNAKNTVYLQMNSLKPEDTAVYYCGAWTLYWSHTTWSYDYWGQGTQVTVSS” the “polyreactivity (PSR sort gate)” value was “low polyreactivity”.

For “QVQHVESGGGLVQAGGSLRLSSAAYGFIFGYYTMGWYRQAPGKERELVAAITSGDSTNYADSVKGRFTISRDNAKNTVYLQMNSLKPEDTAVYYCNARGLFTWMDYWGQGTQVTVSS”, the “polyreactivity (PSR sort gate)” value was “low polyreactivity”.

With “QVQLVESGGGLVQAGGSLRLSCAASGRIFGGNAMGWYRQAPGKECELVAAISKGGGSTNYADSVKGRFTISRDNAKNTVYLQMNSLKPEDTAVYYCAAVVSAHADDVDYWGQGTQVTVSS” the “polyreactivity (PSR sort gate)” value was “high polyreactivity”.

For “QVQLVESGGGLLQAGGSLRLSCAASGRTSDYYAMGWYRQAPGKERELVAAISRSGGRTYYADSVKGRFTISRDNAKNSVYFQMNSLQPEDTAVYYCNAGGTPYVLDEYWGQGTQVTVSS”, the “polyreactivity (PSR sort gate)” value was “high polyreactivity”.

With “QVQLVESGGGLVQAGGSLRLSCAASGLIFRRYTMGWYGQGPGKERELVAAITSSGGNTYYADSVKGRFTISRDNAKNTVYLQMNSLKPEDTAVYYCNNPGTHNYYYWGQGTQVTVSS” the “polyreactivity (PSR sort gate)” value was “high polyreactivity”.

For “QVQLVESGGGIVQAGGSLRLRCAASGFTFERYSMGWYRQAPGKERELVATITRRSGRTSYADSVKGRFTISRDNATNTVYLQMNRLKPEDTAVYYCAVDDAYPDRYDYWGQGTQVTVSS”, the “polyreactivity (PSR sort gate)” value was “high polyreactivity”.

With “QVQLVESGGGLVQAGGSLRLSCAASGSIFYRYAMGWYRQAPGKERELVAAISDRSGSTYYADSVKGRFTISRDNAKNTVYLQMNSLKPEDTAVYYCAAAYNYRAAGYGLSRYYYWGQGTQVTVSS” the “polyreactivity (PSR sort gate)” value was “high polyreactivity”.

In the case of “QVQLVESRRGLVQAGASLPLRCAASVSTLDTYAMGLYRQAPGKERELVAAISRSGNSTYYADSVKGRFTISRDNAKNTVYLQMNSLKPEDTAVYYCAAYGPRVNGEIGREYYYWGQGTQVTVSS”, the “polyreactivity (PSR sort gate)” value was “low polyreactivity”.

With “QVQLVESGGGLVQAGGSLRLSCAASGSTVYASVMGWSRQAPGKARELVAAITSAGSTDYADSVKGRFTISRDNAKNTVYLQMNSRKPEDTAVYYCAADAYTDSPYYKYDYWGQGTQVTVSS” the “polyreactivity (PSR sort gate)” value was “low polyreactivity”.

With “QVQLVESGGGLVQAGASLRLSCAASGFTFGINAMGWYRQAPGKERELVATISTRGGTTHYADSVKGRFTISRDNAKNTVYLQMNRLKPEDTAVYYCAVERGTFRSGFAYEYYYWGQGTQVTVSS” the “polyreactivity (PSR sort gate)” value was “low polyreactivity”.

With “QVQLVESGGGLVHAGCSLRLSCAASGFTFGVYAMGWYRQAPGKERELVAAISTTVGSTYYADSVKGRFTISRDNAKNTFYLQMNSLKPEDTAVYYCAAEYTVYINYYIYEYWGQGTQVTVSS” the “polyreactivity (PSR sort gate)” value was “low polyreactivity”.

In the case of “QVQLVESGGGLVQAGGSLRLSCAASGSTFTYYAMGWYRQAPGKERELVADIDFSGTSTYYADSVKGRFTISRDNAKNTVYLQMNSLKPEDTAVYYCATDDYNWFDYDYWGQGTQVTVSS”, the “polyreactivity (PSR sort gate)” value was “low polyreactivity”.

With “QVQLVESGGGLVQAGGSLRLSCAASGFIFKYNAMGWYRQAPGKERELVAAISYRGTRTYYADSVKGRFTISRDNAKNTVYLQMNSLKPEDTAVYYCNAGLTYNHHPYDYWGQGTQVTVSS” the “polyreactivity (PSR sort gate)” value was “high polyreactivity”.

For “QDQLVESGGGLVQAGGSLRLSCAASGITVDGYAMGWYRQAPGKDRELVAAITTSGGRTYYADSVKGRFTISRDNAKNTVYLQMNSLKPEHTADYYCNAVRGGRYGLDYWGQGTQVTVSS”, the “polyreactivity (PSR sort gate)” value was “high polyreactivity”.

With “QVQLVESGGGLVQAGGSLRLSCAASGSTFRYYTMGWYRQAPGKERELVAAITRRSASTYYADSVKGRFTISRDNAKNTVYLQMNSLKPEDTAVYYCAVRTNGPFEYWGQGTQVTVSS” the “polyreactivity (PSR sort gate)” value was “high polyreactivity”.

With “QVQLVESWAGVVQAGGSLRLSCAASGSIFRNAMGWYRQAPGKERELVAGIRWSYGSTNYADSVKGRFTISRDNAKNSVYLQMNSLKPEDTAVYYCAKGAYYARRMYFWGQGTQVTVSS” the “polyreactivity (PSR sort gate)” value was “low polyreactivity”.

With “QVQLVESGGGLVQAGGSLRLSCAASGRIFPWYAMGWYRQAPGKERELVAAISWSGGRTYYADSVKGRFTISRDNAKITVYLQMNSLKPEDTAVYYCNTGTSGRFLSFGNFDYWGQGTQVTVSS” the “polyreactivity (PSR sort gate)” value was “high polyreactivity”.
